What was measured:
[1] = target: T1, oligopeptide ATYPSGHLDM (SEQ ID NO: 1) (human and mouse); assay: ELISA on the immunogen peptide (FIG. 2)
T1 construct: Synthetic peptide; positions 148 to 157 of the human AQP3 polypeptide, identical in mouse; also called peptide used for immunization; oligopeptide 5
T1 peptide: ATYPSGHLDM

[2] = target: T2, human aquaporin 3 (AQP3) on cells (human, UniProt Q92482 1-292); assay: fluorescence binding assay on HaCaT cells, 10 µg/mL (FIG. 5C)
T2 construct: whole, on cells; Water channel membrane protein; also called human AQP3; AQP3 on HaCaT cells
T2 sequence (looked up): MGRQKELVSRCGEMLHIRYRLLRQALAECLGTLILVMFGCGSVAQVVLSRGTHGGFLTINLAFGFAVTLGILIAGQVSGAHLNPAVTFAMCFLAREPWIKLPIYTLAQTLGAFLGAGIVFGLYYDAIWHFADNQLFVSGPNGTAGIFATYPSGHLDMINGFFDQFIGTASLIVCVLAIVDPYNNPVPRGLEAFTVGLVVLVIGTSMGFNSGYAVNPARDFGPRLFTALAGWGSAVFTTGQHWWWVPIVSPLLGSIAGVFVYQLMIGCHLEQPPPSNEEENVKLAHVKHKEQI

[3] = target: T3, mouse aquaporin 3 (AQP3) on cells (mouse, UniProt Q8R2N1 1-292); assay: FACS on HEK293 cells stably overexpressing mouse AQP3, 10 µg/mL
T3 construct: whole, on cells; Water channel membrane protein; also called mouse AQP3; AQP3 on PAM212 cells
T3 sequence (looked up): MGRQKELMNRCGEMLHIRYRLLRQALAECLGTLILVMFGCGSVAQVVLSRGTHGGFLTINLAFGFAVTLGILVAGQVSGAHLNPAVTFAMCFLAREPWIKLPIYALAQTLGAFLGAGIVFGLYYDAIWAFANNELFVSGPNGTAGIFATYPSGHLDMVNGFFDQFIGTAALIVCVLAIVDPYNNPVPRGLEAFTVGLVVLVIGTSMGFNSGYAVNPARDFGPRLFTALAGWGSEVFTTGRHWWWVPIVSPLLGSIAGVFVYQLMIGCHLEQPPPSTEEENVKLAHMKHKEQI
Description: A FACS assay was also performed using HEK293 cells stably overexpressing mouse AQP3. Cells were incubated with antibody E, H, J, or negative control IgG at a concentration of 10 μg/mL for one hour and then sorted by FACS. Separately, HEK293 cells stably overexpressing human AQP3 were incubated with antibody E at a concentration of 10 μg/mL for one hour and then sorted by FACS.

[4] = target: T4, mouse AQP3 in lysate of HEK293T cells overexpressing mouse AQP3 and a myc-biotinylated tag (mouse, UniProt Q8R2N1 1-292); assay: ELISA on lysate of HEK293T cells overexpressing mouse AQP3 (FIG. 3)
T4 construct: Cell lysate used in ELISA; also called AQP3 containing cell lysate; not shown: myc-biotinylated tag
T4 sequence (looked up): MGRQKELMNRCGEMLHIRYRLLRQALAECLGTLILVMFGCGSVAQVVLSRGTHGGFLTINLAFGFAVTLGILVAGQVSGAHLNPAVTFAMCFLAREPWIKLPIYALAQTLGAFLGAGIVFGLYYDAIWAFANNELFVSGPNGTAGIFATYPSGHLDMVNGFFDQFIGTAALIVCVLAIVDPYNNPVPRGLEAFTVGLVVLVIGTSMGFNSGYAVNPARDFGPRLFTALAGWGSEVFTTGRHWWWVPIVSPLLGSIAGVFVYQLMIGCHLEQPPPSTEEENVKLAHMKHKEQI
Source text: Cell lysate from HEK293T cells overexpressing mouse AQP3 and a myc-biotinylated tag was used in an ELISA assay to measure the binding of antibodies A, B, C, D, E, F, G, H, J, and K to AQP3. Cell lysate from HEK293T cells overexpressing the myc-biotinylated tag but not AQP3 was used as control. […] C. Antibody binding to AQP3 expressing cells

[5] = target: T1, oligopeptide ATYPSGHLDM (SEQ ID NO: 1); assay: ELISA on coated peptide
Description: (§1) To determine the important amino acid residues of an epitope in Loop C involved in binding to specific AQP3 antibody clones, peptides of varying lengths were produced. The sequences of these peptides are shown in column 2 of Table 4.
(§2) The various peptides and AQP3 antibody clones were subjected to ELISA binding analyses. […] The microtiter wells (Costar 2690) were coated with 50 μL of each peptide at 4° C. overnight. The wells were washed 3 times with PBS and blocked with 100 μL of 1% BSA/PBS at 37° C. for 1 hour. Each antibody was adjusted to 1 μg/mL in 1% SBA/PBS as above then serially diluted 1:5 in 1% BSA/PBS. The blocker was discarded and the wells were incubated with 50 μL of antibodies at 37° C. for 1.5 hours. The wells were washed 3 times with PBS and mouse antibodies were detected with 50 μL of goat anti-mouse IgG (H+L) HRP conjugate (ThermoFisher 31438) (1:5,000 in 1% BSA/PBS) and rabbit antibodies were detected with 50 μL of goat anti-rabbit IgG (H+L) HRP conjugate (ThermoFisher 31462) (1:5,000 in 1% BSA/PBS) at 37° C. for 1 hour. The wells were washed 3 times with PBS and developed with 50 μL of HRP substrate at RT for 5 min then stopped with 50 μL of 2N sulfuric acid and binding was measured with a plate reader.

[6] = target: T5, oligopeptide SGPNGTAGIFATYPS (SEQ ID NO: 94); assay: ELISA on coated peptide
T5 construct: Synthetic peptide, part of Loop C of AQP3
T5 peptide: SGPNGTAGIFATYPS
Description: as §1, §2

[7] = target: T6, oligopeptide TYPSGHLDM (SEQ ID NO: 96); assay: ELISA on coated peptide
T6 construct: Synthetic peptide, part of Loop C of AQP3
T6 peptide: TYPSGHLDM
Description: as §1, §2

[8] = target: T7, oligopeptide YPSGHLDM (SEQ ID NO: 97); assay: ELISA on coated peptide
T7 construct: Synthetic peptide, part of Loop C of AQP3; first diluted in DMSO
T7 peptide: YPSGHLDM
Description: as §1, §2

[9] = target: T8, oligopeptide PSGHLDM (SEQ ID NO: 98); assay: ELISA on coated peptide
T8 construct: Synthetic peptide, part of Loop C of AQP3
T8 peptide: PSGHLDM
Description: as §1, §2

[10] = target: T9, oligopeptide SGHLDM (SEQ ID NO: 99); assay: ELISA on coated peptide
T9 construct: Synthetic peptide, part of Loop C of AQP3
T9 peptide: SGHLDM
Description: as §1, §2

[11] = target: T10, oligopeptide GHLDM (SEQ ID NO: 100); assay: ELISA on coated peptide
T10 construct: Synthetic peptide, part of Loop C of AQP3
T10 peptide: GHLDM
Description: as §1, §2

[12] = target: T11, oligopeptide ATYPSGHLD (SEQ ID NO: 101); assay: ELISA on coated peptide
T11 construct: Synthetic peptide, part of Loop C of AQP3
T11 peptide: ATYPSGHLD
Description: as §1, §2

[13] = target: T12, oligopeptide ATYPSGHL (SEQ ID NO: 102); assay: ELISA on coated peptide
T12 construct: Synthetic peptide, part of Loop C of AQP3
T12 peptide: ATYPSGHL
Description: as §1, §2

[14] = target: T13, oligopeptide ATYPSGH (SEQ ID NO: 103); assay: ELISA on coated peptide
T13 construct: Synthetic peptide, part of Loop C of AQP3
T13 peptide: ATYPSGH
Description: as §1, §2

[15] = target: T14, oligopeptide ATYPSG (SEQ ID NO: 104); assay: ELISA on coated peptide
T14 construct: Synthetic peptide, part of Loop C of AQP3
T14 peptide: ATYPSG
Description: as §1, §2

[16] = target: T15, oligopeptide TAGIFATYPSGHLDM (SEQ ID NO: 105); assay: ELISA on coated peptide
T15 construct: Synthetic peptide, part of Loop C of AQP3
T15 peptide: TAGIFATYPSGHLDM
Description: as §1, §2

[17] = target: T16, oligopeptide AGIFATYPSGHLDM (SEQ ID NO: 106); assay: ELISA on coated peptide
T16 construct: Synthetic peptide, part of Loop C of AQP3
T16 peptide: AGIFATYPSGHLDM
Description: as §1, §2

[18] = target: T17, oligopeptide GIFATYPSGHLDM (SEQ ID NO: 107); assay: ELISA on coated peptide
T17 construct: Synthetic peptide, part of Loop C of AQP3
T17 peptide: GIFATYPSGHLDM
Description: as §1, §2

[19] = target: T18, oligopeptide IFATYPSGHLDM (SEQ ID NO: 108); assay: ELISA on coated peptide
T18 construct: Synthetic peptide, part of Loop C of AQP3
T18 peptide: IFATYPSGHLDM
Description: as §1, §2

[20] = target: T19, oligopeptide FATYPSGHLDM (SEQ ID NO: 109); assay: ELISA on coated peptide
T19 construct: Synthetic peptide, part of Loop C of AQP3
T19 peptide: FATYPSGHLDM
Description: as §1, §2

[21] = target: T1, oligopeptide ATYPSGHLDM (SEQ ID NO: 1); assay: ELISA on peptide SEQ ID NO:1, IgG, 50% binding response (FIG. 16A)
[22] = target: T3, mouse aquaporin 3 (AQP3) on cells; assay: fluorescence binding assay on mouse macrophage cells, 0.1, 1 and 10 µg/mL (FIG. 4)
Description: (§3) PAM212 and macrophage cells were reacted with each anti AQP3 antibody (0.1, 1, or 10 μg/mL) at 4° C. for 1 hour. After washing the cells, a fluorescent-labeled secondary antibody was added and the reaction was allowed to occur additionally for 1 hour (4° C.). By measuring the fluorescence intensity, the binding property of each anti AQP3 antibody to cells was obtained.
The testing was also carried out using solvent (Veh) or a non-specific IgG (IgG) controls. In FIG. 4, the vertical axis represents fluorescence intensity, and the mean fluorescence intensity of each sample is represented by bar height together with standard error.

[23] = target: T2, human aquaporin 3 (AQP3) on cells; assay: flow cytometry on HaCaT cells, 10 µg/mL (FIG. 6A)
Description: HaCaT cells were treated with Cell Dissociation Buffer for 30 minutes at 37° C., and then dislodged and collected. Then, the cells were reacted with 10 μg/mL anti AQP3 antibody at 4° C. for 1 hour. After washing the cells, a fluorescent-labeled secondary antibody was added and the reaction was allowed to occur additionally for 1 hour (4° C.). Then, by using a flow cytometer, fluorescence intensity was measured (FIG. 6A to FIG. 6C). FIG. 6A represents the result of a case in which antibody G was used, FIG. 6B represents the result of a case in which antibody H was used, and FIG. 6C represents the result of a case in which antibody J was used. […] The histogram expressed with bold line represents a case in which the anti AQP3 antibody was used while the histogram expressed with thin dotted line represents a case as a control in which the anti AQP3 antibody was not used (addition of non-specific IgG). […] Ratio (%) of the cells included in this range (=cells showing positive staining by anti AQP3 antibody) is also shown in the drawing.

[24] = target: T3, mouse aquaporin 3 (AQP3) on cells; assay: fluorescence binding assay on PAM212 cells, 10 µg/mL (FIG. 5B)
Description: as §3
The assay was also performed using PAM212 cells and antibodies A, B, C, D, E, F, G, H, and J at a concentration of 10 μg/mL. Binding of antibodies C, D, E, G, and J to PAM212 cells was statistically significant.

B1: Antibody H (antibody, mouse IgG2a, kappa, V domains shown)
VH: EVKLVESGGDLVKPGGSLKLSCAASGFTFSSYGMSWVRQTPDKRLEWVATISRRSIYTYYPDSVQGRFTISRDNAKNTLYLQMSSLKSEDTAMYYCARLSLYDYDGARYTMDYWGQGTSVTVSS
VL: DIKMTQSPKFMSTSVGDRVSITCKASQDVGTAVAWYQQKPGQSPKLLIYWASTRHTGVPDRFTGSGSGTDFTLTISNVQSEDLADYFCQQYSSYHTFGAGTKLEIKR
notes: also called anti AQP3 antibody H
binding result [1]: binds
binding result [2]: binds
binding result [3]: binds
binding result [4]: binds

B2: Antibody J (antibody, mouse IgG2a, kappa, V domains shown)
VH: QVHLQQSGTELVKPGASVKLSCEASGYTFTSYWMHWVKQRPGQGLEWIGNINPSNGGTNYNEKFKSKATLTVDKSSSTAYMQLSSLTSEDSAVYYCARGGIYYGNYDYYAMDYWGQGTSVTVSS
VL: DIVMTQAAPSVPVTPGESVSISCRSSKSLLHSNGNTYLYWFLQRPGQSPQLLIYRVSNLASGVPDRFSGSGSGTAFTLRISRVEAEDVGVYYCMQHLEYPFTFGGGTKLEIKR
notes: also called anti AQP3 antibody J
binding signal (plate reader) [5]: 0.391
binding signal (plate reader) [6]: 0.043
binding signal (plate reader) [7]: 0.26
binding signal (plate reader) [8]: 0.086
binding signal (plate reader) [9]: 0.095
binding signal (plate reader) [10]: 0.041
binding signal (plate reader) [11]: 0.043
binding signal (plate reader) [12]: 0.671
binding signal (plate reader) [13]: 0.044
binding signal (plate reader) [14]: 0.045
binding signal (plate reader) [15]: 0.044
binding signal (plate reader) [16]: 0.723
binding signal (plate reader) [17]: 0.744
binding signal (plate reader) [18]: 0.523
binding signal (plate reader) [19]: 0.594
binding signal (plate reader) [20]: 0.513
binding result [2]: binds
EC50 [21]: > 1 µg/mL
binding result [4]: binds
binding result [22]: binds

B3: Antibody G (antibody, mouse IgG2a, kappa, V domains shown)
VH: QVQLKQSGAELVRPGASVTLSCKASGYTFTDYEMHWVKQTPVHGLEWIGGIDPETGGTAYNQKFKGKAILTADKSSSTAYMELRSLTSEDSAVYYCTRWGAITSFVALRGFAYWGQGTLVTVSS
VL: DIQMTQSPSSLSVSAGEKVTMSCKSSQSLLNSGNQKNYLAWYQQKPGQPPKLLIYGASTRESGVPDRFTGSGSGTDFTLTISSVQAEDLAVYYCQNDHSYPPTFGAGTKLELKR
notes: also called anti AQP3 antibody G; Antiboy G
binding result [1]: binds
binding result [23]: binds
binding result [24]: binds
binding result [4]: binds
